B1: MI3-41 (scFv)
scFv: MASMTGGQQMGQVTLKESGPGILQPSQTLSLTCSFSGFSLSTSGMGVGWIRQPSGKGLEWLAHIWRDDVKRYNPALKSRLTISKDTSSSQVFLKIASMDTADTATYYCARIYYYGPYFDVWGAGTTVTVSLAKTSRPSGGGGSGRGGSGGAGSGGGGSIEGRDIQLTQPPSFLSASLGDRVSLTCRVSQDIGSSLNWLQQDPDGTIKRLIYAISSIDSGVPKRFSGNRSESDYSLTISSLESEDFVDYYCLQYASTPPTFGGGTKLEIKRDYKDDDDKRTSRVRLHHHHHHHKK
notes: Single-chain antibody translated in wheat germ extract
B2: MI3-15 (scFv)
scFv: MASMTGGQQMGQVTLKESGPGILQPSQTLSLTCSFSGFSLSTSGMGVGWIRQPSGKGLEWLAHIWRDDVKRYNPALKSRLTISKDTSSSQVFLKIASMDTADTATYYCARIYYYGPYFDVWGAGTTVTVSLAKTSRPSGGGGSGRGGSGGAGSGGGGSIEGRDIQLTQPPSFLSASLGDRVSLTCRVSQDIGSSLNWLQQDPDGTIKRLIYAISSIDSGVPKRFSGNRSESDYFLTISSLESEDFVDYYCLQYASTPPTFGGGTKLEIKRDYKDDDDKRTSRVRLHHHHHHHKK
notes: as for B1
B3: MI3-34 (scFv, V domains shown)
VH: QVTLKESGPGILQPSQTLSLTCSFSGFSLSTSGMGVGWIRQPSGKGLEWLAHIWQDNVKRYNPALKSRLSISKDTSSSQVFLKIASMDTADTATYYCARIYYYGPYFDVWGAWTTVTVSL
notes: as for B1
B4: MI3-5 (scFv)
scFv: MASMTGGQQMGQVTLKETGPGILQPSQTLSLTCSFSGFSLSTSGMGVGWIRQPSGKGLEWLAHIWRDDVKRYNPALKSRLTISKDTSSSQVFLKIASMDTADTATYYCTRIYYYGPYFDVWGAGTTVTVSLAKTSRPSGGGGSGGGGSGGAGSGGGGSIEGRDIQLTQPPSFFSASLGDRASLTRRVSQDIGSSLNWLQQDPDGTIKRLIYAISSIDSGVPKRFSGNRSESDYSLTISSLESEDFVDYYCLQYASTPSTFGGGTKLEIKRDYKDDDDKRTSRVRLHHHHHHHKK
notes: as for B1
B5: MI3-42 (scFv)
scFv: MASMTGGQQKGQVTLKESGPGILQPSQTLSLTCSFSGFSLSTSGMGVGWIRQPSGKGLEWLAHIWRDDVKRYNPALKSRLTISKDTSSSQVFLKIASMDTADTATYYCARIYYYGPYFDVWGAGTTVTVSLAKTSRPSGGGGSGGGGSGGAGSGGGGSIEGRDIQLTQPPSFLSASLGDRVSLTCRVSQDIGSSLNWLQQDPDGTVKRLIYAISSIDSGVPKRFSGNRSESDYSLTISSLESEDFVDYYCLQYASTPPTFGGGTKLEIKRDYKDDDDKRTSRVRLHHHHHHHKK
notes: as for B1
B6: MI3-28 (scFv)
scFv: MASMTGGQQMGQVTLKESGPGILQPSQTLSLTCSFSGFSLSTSGMGVGWIRQPSGKGLEWLAHIWRDDVKRYNPALKSRLTISKDTSSSQVFLKIASMDTADTATYYCPRIYYYGPYFDVWGAGTTVTVSLAKTSRPSGGGGSGGGGSGGAGSGGGGSIEGRDIQLTQPPSFLSASLGDRVSLTCRVSQDIGSSLNWLQQDPDGTIKRLIYAISSIDSGVPKRFSGNRSESDYSLTISSLESEDFVDYYCLQYASTPPTFGGGTKLEIKRDYKDDDDKRTSRVRLHHHHHHHKK
notes: as for B1
B7: MI3-26 (scFv)
scFv: MASMTGGQQMGQVTLKECGPGILQPSQTLSLTCSFSGFSLSTSGMSVGWIRQPSGKGLKWLAHIWWNDDKYYNPAPKSRLTISKDTSNNQVFLKIASVVTADTATYYCARIARISYYFDYWGQGTTLTVSSAKTSRPSGGGGSGGGGTGGVGSRGGSSIEGRDIQLTQPPSFLSASLGDRVSLTCRVSQDIGSSLNWLQQDPDGTIKRLIYAISSIDSGVPKRFSGNRSESDYSLTISSLESEDFVDYYCLQYASTPPTFGGGTKLEIKRDYKDDDDKRTSRVRLHHHHHHHKK
notes: as for B1

The target of the assay is T1, angiotensin II-biotin (UniProt P01019 25-32, biotin attached (angiotensin II-biotin; chemical structure only in Figure 3)).
T1 construct: Captured through its biotin on streptavidin (Biacore chip, ELISA plate) or on NeutrAvidin resin (selection); P01019 is the human angiotensinogen precursor, and angiotensin II is only a fragment of it; also called アンジォテンシン II-ピオチン
In words: SPR (Biacore 3000), angiotensin II-biotin on streptavidin chip.
B1: the binding result is listed as “binds”.

Consider B2, for which the binding result is listed as “binds”. Take B3: the binding result is on record as “binds”. Take B4: the binding result was “binds”. As for B5, the entry is “binds”; as for B6, “binds”; as for B7, “binds”.

(Values after patent publication WO2005035751A1 (dated 2005).)
